± gives the standard deviation of the averaged measurements.
system: ATP; test: switch fluorescence ratio, 500 uM ATP over buffer (Cy3 cluster intensity, sum of 5 cycles each) (fold (ratio)); higher = stronger signal-on switching upon ATP binding; sequences stand for … in TCGTCGGCAGCGTCAGATGTGTATAAGAGACAGTTTTTTTTTTTTTTTTTTTTTTTTT…TC; details: aptamer strand: ATP DNA aptamer (quencher-CACCTGGGGGAGTATTGCGGAGGAAGG + anchor), 100 nM annealed; ATP concentration: 500 uM
How it was run: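 Between each of five buffer/ATP cycles, the flow-cell was stripped with NaOH and re-annealed. Each cycle imaged Cy3-labelled switching-strand clusters, annealed to 100 nM quencher-labelled ATP aptamer on a modified Illumina MiSeq flow-cell, first in selection buffer and then after 15 min with 500 uM ATP at 22 °C. The fluorescence ratio is summed target-cycle over summed buffer-cycle Cy3 intensity per cluster, averaged per switch-domain sequence, with clusters outside 100-1000 RFU excluded.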
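Note: ATP exposure 15 min at 22 °C before imaging.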

| Sequence | switch fluorescence ratio |
| --- | --- |
| AAATACACGA | 1.06 ± 0.029 |
| AAATACGAGA | 1.06 ± 0.024 |
| AAATACGTTT | 1 ± 0.016 |
| AAATAGCTTT | 0.9909 ± 0.0026 |
| AAATAGTGGG | 0.986 ± 0.026 |
| AAATATAAGC | 1.03 ± 0.044 |
| AAATATATCT | 0.987 ± 0.012 |
| AAATATGTGG | 0.989 ± 0.02 |
| AAATATTTAT | 0.971 ± 0.018 |
| AAATCAATGT | 1.02 ± 0.035 |
| AAATCCCTAC | 1.06 ± 0.028 |
| AAATCGGGAA | 1.34 ± 0.44 |
| AAATCGGTGT | 1 ± 0.037 |
| AAATCGTGCA | 1 ± 0.03 |
| AAATCTGAAG | 0.9798 ± 0.0027 |
| AAATGAAGGT | 1.01 ± 0.013 |
| AAATGACGTT | 0.9688 ± 0.0078 |
| AAATGAGCGG | 0.9824 ± 0.0046 |
| AAATGAGTGG | 0.9783 ± 0.006 |
| AAATGCTATG | 1.01 ± 0.031 |
| AAATGCTCGG | 0.993 ± 0.03 |
| AAATGGAATG | 0.983 ± 0.046 |

| Sequence | switch fluorescence ratio |
| --- | --- |
| AAATGGATCA | 1.024 ± 0.0029 |
| AAATGGCACG | 0.973 ± 0.024 |
| AAATGGCATT | 1 ± 0.033 |
| AAATGGGGGG | 0.974 ± 0.017 |
| AAATGGTTTT | 1 ± 0.024 |
| AAATGTCTTG | 0.955 ± 0.043 |
| AAATGTGACG | 1.03 ± 0.028 |
| AAATGTTGAG | 0.975 ± 0.045 |
| AAATGTTTCA | 0.996 ± 0.022 |
| AAATGTTTGG | 1.01 ± 0.017 |
| AAATGTTTTC | 0.979 ± 0.015 |
| AAATTACGGG | 1.045 ± 0.0046 |
| AAATTATAGG | 1.01 ± 0.032 |
| AAATTATTT | 1.02 ± 0.051 |
| AAATTCATAG | 1.019 ± 0.0033 |
| AAATTCATGG | 0.9809 ± 0.0021 |
| AAATTCATGT | 0.996 ± 0.028 |
| AAATTCGAAT | 1.02 ± 0.041 |
| AAATTCGGGC | 0.973 ± 0.014 |
| AAATTCTGGG | 0.996 ± 0.0075 |
| AAATTGAGGA | 1.017 ± 0.0096 |
| AAATTGATAT | 1.02 ± 0.025 |

| Sequence | switch fluorescence ratio |
| --- | --- |
| AAATTGCGGC | 0.975 ± 0.012 |
| AAATTGGACG | 1.08 ± 0.04 |
| AAATTGGGAA | 1.01 ± 0.035 |
| AAATTGTCGT | 0.977 ± 0.042 |
| AAATTTACCT | 1.42 ± 0.072 |
| AAATTTATTA | 1.03 ± 0.037 |
| AAATTTATTT | 0.9932 ± 0.0038 |
| AAATTTGAAG | 1.02 ± 0.012 |
| AAATTTGGGT | 1.01 ± 0.013 |
| AAATTTGTGT | 0.999 ± 0.051 |
| AAATTTGTTG | 0.992 ± 0.011 |
| AAATTTTAAT | 0.979 ± 0.04 |
| AAATTTTGGG | 1 ± 0.019 |
| AACAGACCTT | 1.13 ± 0.12 |
| AACAGCAATT | 1.27 ± 0.35 |
| AACAGGGGAG | 1.03 ± 0.03 |
| AACAGGGGGC | 1.04 ± 0.023 |
| AACAGGGTCT | 0.991 ± 0.038 |
| AACAGTGAAA | 1.02 ± 0.02 |
| AACAGTTTTT | 0.989 ± 0.044 |
| AACATATCGG | 1.02 ± 0.029 |
| AACATCGTTT | 1.02 ± 0.019 |

| Sequence | switch fluorescence ratio |
| --- | --- |
| AACATGGGGA | 0.976 ± 0.025 |
| AACATTATTT | 1.022 ± 0.0014 |
| AACATTGGGG | 1.02 ± 0.024 |
| AACCAATAGC | 1.1 ± 0.035 |
| AACCAGAAAT | 0.992 ± 0.01 |
| AACCAGGACT | 1.02 ± 0.013 |
| AACCAGTGCG | 1.08 ± 0.032 |
| AACCCAACGA | 1.27 ± 0.025 |
| AACCCATGCT | 1.05 ± 0.064 |
| AACCCCCGTT | 1.07 ± 0.09 |
| AACCCTTTGC | 1.04 ± 0.016 |
| AACCGCGATG | 2.25 ± 0.1 |
| AACCTATGGT | 0.978 ± 0.0042 |
| AACCTCCGTT | 1.71 ± 0.064 |
| AACCTGTCGC | 1.3964 ± 0.0013 |
| AACCTTAGGA | 1.05 ± 0.017 |
| AACCTTATTT | 0.9965 ± 0.0022 |
| AACCTTGACG | 1.07 ± 0.047 |
| AACCTTGGGG | 1.11 ± 0.079 |
